This note sets out measurements from US20230265217A1 (published 2023).

Where a chain is given by its changes, count along the chain named. Values joined by “and” are separate entries in the source; they are usually repeats but may differ in a detail not shown here. Equal values may be shown once.

The target in assay [1] is Antibody 178-08_His 501.V2 (27079) (SARS-CoV-2, UniProt P0DTC2 14-685). Put plainly: FACS. (In general: In flow cytometry, cells or beads pass a laser one at a time.)
The target in assay [2] is Antibody 178-09_His B.1.1.7 (27080) (SARS-CoV-2, UniProt P0DTC2 14-685). Put plainly: FACS.
The target in assay [3] is Antibody 178-10_His CA_W152C_L452R_D614G (27081) (SARS-CoV-2, UniProt P0DTC2 14-685). Briefly: FACS.
For assay [4], the target named is 178-6. Briefly: competition.
Assay [5] deals with SARS-CoV-2 S1 Subunit Monomer B.1.617.2 Delta. Briefly: SPR. On the technique in general: In SPR one partner is held on a chip, and binding of the other changes the refractive index at the surface.
Assay [6] concerns the target SARS-CoV-2 S Trimer B.1.1.529 Omicron. Put plainly: SPR.
In assay [7] the target is SARS-CoV-2 S1 Subunit Monomer B.1.1.529 Omicron. Put plainly: SPR.
Assay [8] has as its target 178-6. Put plainly: binding competition.

The IC50 is the concentration that inhibits the measured activity by half. A low value points to inhibition by little substance. As a reminder, the Kd is the concentration at which binding is half-saturated. Higher therefore signals lower affinity.

B1: 7-26 (VHH)
VHH: EVQLVESGGGLVQPGGSLRLSCAASGSTFSINAMGWFRQAPGKEREFVAGITSSGGYTNYADSVKGRFTISADNSKNTAYLQMNSLKPEDTAVYYCAADGVPEYSDYASGPVWGQGTLVTVSS
As to B1, the 50% inhibitory concentration (IC50) in assay [1] was 0.979 nM; in assay [2] it was 1.42 nM; in assay [3], 0.56 nM and 0.634 nM; with 178-6 [4], 0.138 nM.

B2: 7-37 (VHH)
VHH: B1 VHH with F29L, S53R, G56S, Y57V
B2: the IC50 in assay [1] came to 2.1 nM; in assay [2] it was 2.82 nM; in the assay with 178-6 [4] it was 7.51 nM.

B3: 3-31 (VHH)
VHH: B1 VHH
As for B3, the IC50 was found to be 325 nM in assay [1], 0.629 nM in assay [3] and 1.25 nM with 178-6 [4].

B4: Variant 3-31 (VHH)
VHH: B1 VHH
On to B4, for which the Kd was 1.1 nM in assay [5] and 2.1 nM in assay [6].

B5: Variant 6A-3 (VHH)
VHH: EVQLVESGGGLVQPGGSLRLSCAASGFTFSPSWMGWFRQAPGKEREFVATINEYGGRNYADSVKGRFTISADNSKNTAYLQMNSLKPEDTAVYYCARVDRDFDYWGQGTLVTVSS
For the molecule B5, the Kd in assay [6] is under 0.04 nM; in assay [7] it was 3.5 nM.

B6: 5A-3 (VHH)
VHH: EVQLVESGGGLVQPGGSLRLSCAASGSIFSIDVMGWFRQAPGKEREFVAGISWSGDSTLYADSVKGRFTISADNSKNTAYLQMNSLKPEDTAVYYCAAFDGYTGSDWGQGTLVTVSS
For the molecule B6, the results for the IC50 (in assay [1]; in assay [2]; in the assay with 178-6 [8]) were 0.587 nM, 0.891 nM and 0.904 nM, respectively.

B7: 7-14 (VHH)
VHH: EVQLVESGGGLVQPGGSLRLSCAASGSTFSINAMGWFRQAPGKEREFVAGISRGGTTNYADSVKGRFTISADNSKNTAYLQMNSLKPEDTAVYYCAADGVPEYSDYASGPVWGQGTLVTVSS
As to B7, the figures for the IC50 (in assay [1]; in assay [2]; with 178-6 [4]) were 4.42 nM, 2.52 nM and 0.682 nM, respectively.
